# Laboratory results from patent US9717715B2, “Method of combination therapy using an anti-C-Met antibody” (Samsung Electronics Co., Ltd., priority 2013, dated 2017).
# B1: L3-11Y: light chain SEQ ID NO: 73 (serine 27e replaced with tryptophan) and the heavy chain of huAbF46-H4-A1 (IgG2 Fc) (antibody)
# heavy: EVQLVESGGGLVQPGGSLRLSCAASGFTFTDYYMSWVRQAPGKGLEWLGFIRNKANGYTTEYSASVKGRFTISRDNSKNTLYLQMNSLRAEDTAVYYCARDNWFAYWGQGTLVTVSSASTKGPSVFPLAPCSRSTSESTAALGCLVKDYFPEPVTVSWNSGALTSGVHTFPAVLQSSGLYSLSSVVTVPSSNFGTQTYTCNVDHKPSNTKVDKTVERKCCVECPPCPAPPVAGPSVFLFPPKPKDTLMISRTPEVTCVVVDVSHEDPEVQFNWYVDGVEVHNAKTKPREEQFNSTFRVVSVLTVVHQDWLNGKEYKCKVSNKGLPAPIEKTISKTKGQPREPQVYTLPPSREEMTKNQVSLTCLVKGFYPSDIAVEWESNGQPENNYKTTPPMLDSDGSFFLYSKLTVDKSRWQQGNVFSCSVMHEALHNHYTQKSLSLSPGK
# light: DIQMTQSPSSLSASVGDRVTITCKSSQSLLAWGNQNNYLAWYQQKPGKAPKMLIIWASTRVSGVPSRFSGSGSGTDFTLTISSLQPEDFATYYCQQSYSRPYTFGQGTKVEIKRTVAAPSVFIFPPSDEQLKSGTASVVCLLNNFYPREAKVQWKVDNALQSGNSQESVTEQDSKDSTYSLSSTLTLSKADYEKHKVYACEVTHQGLSSPVTKSFNRGEC
# Tests used:
# c-Met in MKN45 cells = target: T1, c-Met in MKN45 cells (Homo sapiens, UniProt P08581); experiment: Degree of degradation of c-Met (total c-Met ELISA); type: cell-based; settings: 5 ug/ml, 24 hours, FIG. 9B
# T1 construct: MKN45 gastric cancer cells on which c-Met is expressed; endogenous in cells; host or cells: MKN45 gastric cancer cells (JCRB)
# T1 sequence (P08581 25-1390): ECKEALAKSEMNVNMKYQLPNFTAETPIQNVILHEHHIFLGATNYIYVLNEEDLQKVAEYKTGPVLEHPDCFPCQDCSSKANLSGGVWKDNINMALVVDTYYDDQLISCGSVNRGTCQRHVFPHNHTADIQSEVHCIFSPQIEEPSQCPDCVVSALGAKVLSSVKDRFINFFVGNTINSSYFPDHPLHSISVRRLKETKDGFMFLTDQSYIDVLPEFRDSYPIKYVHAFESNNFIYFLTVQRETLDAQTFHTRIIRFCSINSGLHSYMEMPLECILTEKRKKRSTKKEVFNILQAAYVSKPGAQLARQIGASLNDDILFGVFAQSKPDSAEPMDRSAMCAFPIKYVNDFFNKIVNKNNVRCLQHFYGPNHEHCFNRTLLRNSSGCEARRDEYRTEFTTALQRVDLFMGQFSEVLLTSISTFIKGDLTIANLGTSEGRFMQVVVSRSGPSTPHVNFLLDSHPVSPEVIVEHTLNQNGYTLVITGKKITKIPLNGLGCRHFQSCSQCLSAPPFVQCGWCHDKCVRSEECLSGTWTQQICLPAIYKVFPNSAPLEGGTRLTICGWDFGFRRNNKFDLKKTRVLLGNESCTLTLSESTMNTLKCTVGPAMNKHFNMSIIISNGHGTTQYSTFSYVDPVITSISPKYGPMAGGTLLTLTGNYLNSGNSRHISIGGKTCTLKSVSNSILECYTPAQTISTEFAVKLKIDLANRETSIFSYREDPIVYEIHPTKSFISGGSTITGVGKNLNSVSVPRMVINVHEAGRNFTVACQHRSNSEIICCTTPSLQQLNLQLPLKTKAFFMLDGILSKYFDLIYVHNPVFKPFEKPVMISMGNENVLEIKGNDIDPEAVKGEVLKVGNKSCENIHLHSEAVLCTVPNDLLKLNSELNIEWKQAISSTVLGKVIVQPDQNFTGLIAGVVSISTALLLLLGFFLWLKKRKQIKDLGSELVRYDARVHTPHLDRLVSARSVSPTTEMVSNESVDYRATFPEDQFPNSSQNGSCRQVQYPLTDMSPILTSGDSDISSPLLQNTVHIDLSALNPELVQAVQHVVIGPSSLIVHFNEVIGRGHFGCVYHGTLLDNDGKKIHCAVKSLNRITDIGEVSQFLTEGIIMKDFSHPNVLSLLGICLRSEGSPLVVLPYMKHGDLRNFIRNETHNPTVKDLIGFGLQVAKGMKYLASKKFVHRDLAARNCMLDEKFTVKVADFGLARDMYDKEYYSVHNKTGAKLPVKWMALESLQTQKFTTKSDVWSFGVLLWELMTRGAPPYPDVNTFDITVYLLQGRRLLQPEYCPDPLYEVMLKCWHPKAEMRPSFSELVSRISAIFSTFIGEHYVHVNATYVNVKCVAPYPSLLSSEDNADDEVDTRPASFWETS
# Protocol: In order to identify anti-cancer effects of the 4 types of antibodies having improved affinities, as prepared in Example 5, the degree of degradation of c-Met bound to the antibodies was evaluated. A relative total amount of c-Met was obtained by measuring the change in the total amount of c-Met after the antibody binds to c-Met to degrade c-Met via internalization, and thus the efficacy of the antibody was evaluated.
# (§1) MKN45 cells (2×10^5 cells/ml) and each of the antibodies (5 ug/ml) were simultaneously introduced to a 96-well plate and incubated for 24 hours. Then, lysis of the cells treated with antibodies was performed and the change in the total amount of c-Met was measured using a Human total HGF R/c-Met ELISA KIT (R&D systems, DYC358) and analyzed.
# as §1, with “In order to identify anti-cancer effects of the 3 types of antibodies having improved affinities, as prepared in Example 11, the degree of degradation of c-Met bound to the antibody was evaluated. MKN45” for “MKN45”, “and a” for “and the”, “change of” for “change in”
# [1] = test system: Akt phosphorylation in Caki-1 cells; experiment: Akt phosphorylation (phospho-AKT1 Ser473 sandwich ELISA); type: cell-based; settings: 5 ug/ml, FIG. 8B
# Excerpt: Cellular processes regulated by Akt include cell proliferation, cell survival, cell size control, and response to nutrient availability, intermediary metabolism, angiogenesis, and tissue invasion. All these processes represent characteristics of cancer and many oncoproteins and tumor suppressors intersect in the Akt pathway, finely regulating cellular functions at the interface of signal transduction and classical metabolic regulation. Thus, as the content of phosphorylated Akt that is an active form increases, the activity of cancer cells increases. Here, the degree of inhibiting Akt phosphorylation by the 4 types of antibodies having improved affinities was evaluated.
# To compare agonism of the 4 types of antibodies having improved affinities, as prepared in Example 5, Caki-1 cells (Korean Cell Line Bank) were used to confirm the degree of Akt phosphorylation. Mouse IgG was used as a negative control, and antibody 5D5 (a known agonist) was used as a positive control.
# 2×10^5 cells/ml of Caki-1 cells were introduced to a 96-well plate, and after 24 hours, each of 5 ug/ml of the antibodies was treated in serum free medium for 30 minutes. Lysis of the cells treated with the antibodies was performed and the degree of Akt phosphorylation was measured using a PathScan phospho-AKT1 (Ser473) chemiluminescent Sandwich ELISA kit (Cell Signaling, cat. no #7134S). […]
molecule,measurement,setting,value
B1,activity of c-Met degradation compared to huAbF46-H4-A1 (IgG2 Fc),c-Met in MKN45 cells,approximately equal activity of c-Met degradation
same,activity of Akt phosphorylation inhibition compared to huAbF46-H4-A1 (IgG2 Fc),[1],equal or higher activity of Akt phosphorylation inhibition
